The source of these data is doi:10.1101/620385.

For assay [1], the target named is nucleosome core particle with histone H3 phosphorylated at Thr3 (human | Xenopus laevis) (UniProt P84233). The assay can be described thus: SPR. In general terms: In SPR one partner is held on a chip, and binding of the other changes the refractive index at the surface.
For assay [2], the target named is unmodified nucleosome core particle (human | Xenopus laevis). The assay is described as follows: SPR.

As for “CPC localisation module containing Borealin 10-end (from UniProt Q53HL2;O15392;Q9NQS7) (complex)”, the fold reduction in binding affinity against CPC LM in assay [1] and in assay [2] was 3 fold in each case.
Regarding “CPC localisation module (Borealin-Survivin-INCENP 1-58) (from UniProt Q53HL2;O15392;Q9NQS7) (complex)”, the Kd in assay [1] worked out at 103 nM; in assay [2], 295 nM.

The term Kd denotes the constant that tells how readily two partners part at equilibrium. High values mean weaker binding, low ones tighter binding.
